Laboratory results published in patent publication US20240254229A1 (Molecular Partners, published 2024).

T1: human scCD3εγ (scCD3εγ_Avi-Bio) (human, biotin on the C-terminal Avi-tag (in vitro, BirA) where the biotinylated form was used)
T1 construct: Used for all SPR and HTRF results on human CD3; also called recombinant human CD3; human CD3
T1 chain: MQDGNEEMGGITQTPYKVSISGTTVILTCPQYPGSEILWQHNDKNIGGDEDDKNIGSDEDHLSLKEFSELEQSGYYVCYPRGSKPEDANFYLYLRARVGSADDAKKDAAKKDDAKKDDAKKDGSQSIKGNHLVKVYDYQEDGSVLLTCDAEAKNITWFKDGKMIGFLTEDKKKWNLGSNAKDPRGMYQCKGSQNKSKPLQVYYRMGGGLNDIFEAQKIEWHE

T2: biotinylated extracellular domain of human CD123 (SEQ ID NO: 88), Fc and Avi tagged (human, UniProt P26951 19-303, biotinylated with BirA-GST (Avi tag))
T2 construct: also called hCD123
T2 sequence: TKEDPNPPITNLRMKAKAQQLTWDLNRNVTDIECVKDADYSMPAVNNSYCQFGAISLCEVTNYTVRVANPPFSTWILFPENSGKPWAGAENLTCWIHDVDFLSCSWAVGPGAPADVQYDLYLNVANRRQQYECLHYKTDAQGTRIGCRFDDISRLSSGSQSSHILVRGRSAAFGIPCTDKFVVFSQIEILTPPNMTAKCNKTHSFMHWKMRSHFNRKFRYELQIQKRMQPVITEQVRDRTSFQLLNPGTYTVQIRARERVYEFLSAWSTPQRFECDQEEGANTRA

T3: extracellular domain of human CD70 (SEQ ID NO: 89), hCD70-Fc-trimer, ACRO Biosystems (human, UniProt P32970 52-193, chemically biotinylated where the biotinylated form was used)
T3 construct: also called human CD70-Fc-trimer; Bio.CD70
T3 sequence: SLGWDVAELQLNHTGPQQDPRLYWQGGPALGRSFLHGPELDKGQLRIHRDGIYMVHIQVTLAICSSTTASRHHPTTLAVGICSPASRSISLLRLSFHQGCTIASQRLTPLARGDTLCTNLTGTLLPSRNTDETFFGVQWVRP


Key:
[1] = biological target: T1, human scCD3εγ (scCD3εγ_Avi-Bio); assay: SPR, set-up not described
human serum albumin = biological target: T4, human serum albumin (human, UniProt P02768 25-609); assay: SPR, set-up not described
T4 construct: also called HSA; SA
T4 sequence (P02768 25-609 limits assumed): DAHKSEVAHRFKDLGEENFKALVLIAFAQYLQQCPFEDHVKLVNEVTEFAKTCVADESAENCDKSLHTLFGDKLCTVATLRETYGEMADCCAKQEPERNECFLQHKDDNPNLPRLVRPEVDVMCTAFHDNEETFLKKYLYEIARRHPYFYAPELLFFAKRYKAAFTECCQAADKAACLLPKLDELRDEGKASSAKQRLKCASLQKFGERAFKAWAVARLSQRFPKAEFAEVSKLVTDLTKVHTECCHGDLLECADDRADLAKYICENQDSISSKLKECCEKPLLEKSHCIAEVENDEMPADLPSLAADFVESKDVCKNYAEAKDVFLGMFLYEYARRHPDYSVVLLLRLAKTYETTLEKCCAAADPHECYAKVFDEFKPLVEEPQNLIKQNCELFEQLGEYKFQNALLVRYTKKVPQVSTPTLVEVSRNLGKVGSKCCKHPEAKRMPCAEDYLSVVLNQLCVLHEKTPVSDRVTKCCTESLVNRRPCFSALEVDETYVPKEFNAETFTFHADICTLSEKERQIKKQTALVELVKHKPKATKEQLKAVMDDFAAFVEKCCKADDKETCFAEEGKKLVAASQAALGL

[2] = biological target: T5, Molm-13 N1 tumor cells (carrying CD123, CD33 and CD70) (human, UniProt P20138 18-364; P26951 19-378; P32970 1-193); assay: flow cytometry on Molm-13 N1 cells, 20 uM HSA
T5 construct: whole, on cells; Not a complex: three separate antigens on one cell; also called Molm-13 N1 cells
T5 sequence (P20138 18-364, one chain of several): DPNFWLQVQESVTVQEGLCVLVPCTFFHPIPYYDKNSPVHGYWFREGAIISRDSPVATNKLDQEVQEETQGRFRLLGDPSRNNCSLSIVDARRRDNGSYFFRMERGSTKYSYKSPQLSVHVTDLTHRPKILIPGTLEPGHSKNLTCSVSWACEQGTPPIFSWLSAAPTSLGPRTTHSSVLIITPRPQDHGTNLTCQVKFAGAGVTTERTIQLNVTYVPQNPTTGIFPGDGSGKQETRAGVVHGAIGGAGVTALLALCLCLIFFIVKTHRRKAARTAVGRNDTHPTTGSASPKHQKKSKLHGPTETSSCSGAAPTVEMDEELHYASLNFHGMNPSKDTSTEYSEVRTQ
Protocol: The determination of binding of several multispecific proteins to tumor cells was performed by Fluorescence Activated Cell Sorting (FACS) flow cytometry. Therefore, tumor cells (Molm-13 N1), were seeded at 100′000 cells per well in a 96 well plate. DARPin® protein #56, DARPin® protein #57, DARPin® protein #58, DARPin® protein #59, DARPin® protein #60, DARPin® protein #61 and DARPin® protein #62 were titrated down starting at 100 nM in 1:5 dilution ratio. Tumor cells were resuspended with diluted DARPin® proteins and incubated 60 minutes at 4° C. The assay was performed in PBS including 2% fetal bovine serum and human serum albumin 20 uM (HSA). After washing twice with Phosphate Buffer saline (PBS), DARPin® protein specific tumor cell binding was detected by adding unlabelled primary […] (anti-rabbit 1-1-1 antibody, CePower) at 2 ug/ml. An incubation step of at least 30 minutes at 4° C. followed. Afterwards, cells were washed with PBS and a secondary anti-rabbit antibody labelled with Alexa Fluor 647 antibody (ThermoFisher) at 2 ug/ml was added. The same incubation conditions applied. Finally, the cells were washed twice and resuspended in Cytofix fixation buffer (BD Biosciences) for 15 min at room temperature (RT). Median fluorescence intensities (MFI) of Alexa Fluor 647 DARPin® labelled cells were measured by Attune NxT (Thermo Fisher) using FlowJo software for analyses and GraphPad Prism 8 for data plotting.

[3] = biological target: T6, biotinylated extracellular domain of human CD33 (SEQ ID NO: 87), Fc and Avi tagged (human, UniProt P20138 18-259, biotinylated with BirA-GST (Avi tag)); assay: SPR (ProteOn), DARPin immobilized, hCD33 as analyte
T6 construct: also called hCD33; human target hCD33
T6 sequence (P20138 18-259 R69G): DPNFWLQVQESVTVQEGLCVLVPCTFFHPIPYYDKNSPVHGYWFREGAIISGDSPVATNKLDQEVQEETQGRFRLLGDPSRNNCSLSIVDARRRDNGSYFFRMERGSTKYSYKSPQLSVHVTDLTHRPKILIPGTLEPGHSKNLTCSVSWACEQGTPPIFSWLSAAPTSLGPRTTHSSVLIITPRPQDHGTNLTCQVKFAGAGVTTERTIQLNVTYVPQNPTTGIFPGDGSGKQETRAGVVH
Protocol: For measuring the interaction with human CD33, DARPin® protein #56 and DARPin® protein #57 were diluted in 10 mM NaOAc pH 4.0 and immobilized on an NHS/EDC activated HC200M sensorchip (XanTec bioanalytics GmbH) to a level of around 1000 resonance units (RU) (SMA555) or 1400 Rus (PSC466) using a ProteOn (BioRad). The surface was deactivated using Ethanolamine. The interaction of the tested proteins and human target hCD33 (SEQ ID NO:87) was then measured by injecting 400 μl running buffer (PBS, pH 7.4 containing 0.005% Tween 200) containing three-fold serial dilutions of human target hCD33 covering a concentration range between 66.7 nM and 0.82 nM, followed by a running buffer flow for 500 seconds at a constant flow rate of 100 μl/min (off-rate measurement). After each measurement, a 10 min pause was introduced to allow for complete dissociation of the analyte. Each interaction was recorded in triplicates. The signals (i.e. resonance unit (RU) values) of the interspots and a reference injection (i.e. injection of running buffer only) were subtracted from the RU traces obtained injecting human hCD33 (double-referencing). Dissociation constants (KD) were calculated from the globally fitted on- and off-rates using standard 1:1-Langmuir model.

[4] = biological target: T2, biotinylated extracellular domain of …; assay: SPR (Bruker Sierra SPR-32 Pro), hCD123 on IgG capture chip
Protocol: The binding affinities of selected multispecific ankyrin repeat proteins on recombinant targets were analyzed using ProteOn (BioRad) and Bruker Sierra SPR-32 Pro instruments. The measurements were performed according to standard procedures known to the person skilled in the art. For that, DARPin® protein #56 and DARPin® protein #57 of the invention were subcloned and expressed as described above into derivatives of the pQE30 (Qiagen) expression vectors, containing an N-terminal His-tag, two human serum album specific binding domains and CD70, CD123 and CD33 specific binding domains, followed by one CD3 specific binding domain.
Similarly, human target_hCD123 (SEQ ID NO: 88) was diluted in PBST (PBS, pH 7.4 containing 0.005% Tween 20®) and captured on a Bruker IgG Capture sensorchip to a level of around 177 resonance units (RU) using a Bruker Sierra SPR-32pro. The interaction of each tested ankyrin repeat protein and target_hCD123 was then measured by injecting 100 μl running buffer (PBS, pH 7.4 containing 0.005% Tween 200) containing three-fold serial dilutions of ankyrin repeat proteins covering a concentration range between 200 nM and 91 pM, followed by a running buffer flow for at least 1500 seconds at a constant flow rate of 25 μl/min (off-rate measurement). […] Each interaction was recorded in triplicates. […]

[5] = biological target: T3, extracellular domain of human CD70 (SEQ …); assay: SPR (ProteOn), hCD70-Fc-trimer captured on protein A/G chip
Protocol: Briefly, human target CD70 (SEQ ID NO: 89; hCD70-Fc-trimer, ACRO Biosystems) was diluted in PBST (PBS, pH 7.4 containing 0.005% Tween 20®) and captured on a PAGD200L protein A/G sensorchip (XanTec bioanalytics GmbH) to a level of around 36 resonance units (RU) using a ProteOn (BioRad). The interaction of each tested ankyrin repeat protein and human CD70-Fc-trimer was then measured by injecting 400 μl running buffer (PBS, pH 7.4 containing 0.005% Tween 20®) containing three-fold serial dilutions of ankyrin repeat proteins covering a concentration range between 600 nM and 7.4 nM, followed by a running buffer flow for 2700 seconds at a constant flow rate of 100 μl/min (off-rate measurement). The regeneration was performed using 30 μl of 10 mM glycine pH 2 and hCD70-Fc-trimer was reinjected to prepare the surface for the next measurement. Each interaction was recorded in triplicates. The signals (i.e. resonance unit (RU) values) of the interspots and a reference injection (i.e. injection of running buffer only) were subtracted from the RU traces obtained injecting the ankyrin repeat protein (double-referencing). Dissociation constants (KD) were calculated from the globally fitted on- and off-rates using standard 1:1-Langmuir model.

Binder | Kd [1] [nM] | Kd (human serum albumin) [nM] | EC50 [2] [nM] | Kd [3] [nM] | Kd [4] [nM] | Kd [5] [nM]
DARPin® protein #56 (designed binder, HSA-HSA-CD33-CD123-CD70-CD3; not shown: N-terminal His-tag) DLGKKLLEAARAGQDDEVRELLKAGADVNAKDYFSHTPLHLAARNGHLKIVEVLLKAGADVNAKDFAGKTPLHLAAADGHLEIVEVLLKAGADVNAQDIFGKTPADIAADAGHEDIAEVLQKAAGSPTPTPTTPTPTPTTPTPTPTGSDLGKKLLEAARAGQDDEVRELLKAGADVNAKDYFSHTPLHLAARNGHLKIVEVLLKAGADVNAKDFAGKTPLHLAAADGHLEIVEVLLKAGADVNAQDIFGKTPADIAADAGHEDIAEVLQKAAGSPTPTPTTPTPTPTTPTPTPTGSDLGVKLLLAAERGQLDEVRILLKAGADVNAKDIAEGYTPLHIAAYQGHLEIVEVLLKAGADVNAKDRYGKTPLHLAAIGGHLEIVEVLLKAGADVNAQDNKGSTPADLAADYGHQDIAEVLQKAAGSPTPTPTTPTPTPTTPTPTPTGSDLGKKLLEAALEGQLDEVRELLKAGADVNAKDQEGYTPLHLAAALGHLEIVEVLLKAGADVNAKDQIGRTPLHLAAYKGHLEIVEVLLKAGADVNAQDIIGQTPADLAAQRGHQDIAEVLQKAAGSPTPTPTTPTPTPTTPTPTPTGSDLGIKLLTAAYDGQLDEVRILLKAGADVNAKDLRGQTPLHYAAGLGHLEIVEVLLKAGADVNAKDLHGWTPLHLAAWSGHLEIVEVLLKAGADVNAQDVEGVTPADLAAVQGHQDIAEVLQKAAGSPTPTPTTPTPTPTTPTPTPTGSDLGQKLLEAAWAGQDDEVRELLKAGADVNAKNSRGWTPLHTAAQTGHLEIFEVLLKAGADVNAKNDKRVTPLHLAAALGHLEIVEVLLKAGADVNARDSWGTTPADLAAKYGHQDIAEVLQKAA | 24 | 120 | 0.26 | 5.1 | 0.056 | 0.61
DARPin® protein #57 (designed binder, HSA-HSA-CD70-CD123-CD33-CD3; not shown: N-terminal His-tag) DLGKKLLEAARAGQDDEVRELLKAGADVNAKDYFSHTPLHLAARNGHLKIVEVLLKAGADVNAKDFAGKTPLHLAAADGHLEIVEVLLKAGADVNAQDIFGKTPADIAADAGHEDIAEVLQKAAGSPTPTPTTPTPTPTTPTPTPTGSDLGKKLLEAARAGQDDEVRELLKAGADVNAKDYFSHTPLHLAARNGHLKIVEVLLKAGADVNAKDFAGKTPLHLAAADGHLEIVEVLLKAGADVNAQDIFGKTPADIAADAGHEDIAEVLQKAAGSPTPTPTTPTPTPTTPTPTPTGSDLGIKLLTAAYDGQLDEVRILLKAGADVNAKDLRGQTPLHYAAGLGHLEIVEVLLKAGADVNAKDLHGWTPLHLAAWSGHLEIVEVLLKAGADVNAQDVEGVTPADLAAVQGHQDIAEVLQKAAGSPTPTPTTPTPTPTTPTPTPTGSDLGKKLLQAALEGQLDEVRELLKAGADVNAKDIEGYTPLHLAAALGHLEIVEVLLKAGADVNAKDQIGRTPLHLAAYKGHLEIVEVLLKAGADVNAQDIIGQTPADLAAQRGHQDIAEVLQKAAGSPTPTPTTPTPTPTTPTPTPTGSDLGKKLLLAAERGQLDEVRILLKAGADVNAKDRAEGYTPLHIAAYQGHLEIVEVLLKAGADVNAKDRYGKTPLHLAAISGHLEIVEVLLKAGADVNAQDNKGSTPADLAADYGHQDIAEVLQKAAGSPTGSDLGQKLLEAAWAGQDDEVRELLKAGADVNAKNSRGWTPLHTAAQTGHLEIFEVLLKAGADVNAKNDKRVTPLHLAAALGHLEIVEVLLKAGADVNARDSWGTTPADLAAKYGHQDIAEVLQKAA | 29 | 110 | 0.13 | 12 | 0.094 | 0.82
